# In paper PMC4450073:
# Columns and labels:
# [1] = target: adenovirus type 5 (Ad5) hexon, on purified Ad5 vector particles (human adenovirus type 5) (UniProt P04133); assay: SPR; biotinylated virus coupled to a streptavidin (SA) chip (Ad5 482 RU, Ad26.HVR5C 484 RU), T200; 2-fold serial dilutions of hFX from 30 μg/mL injected at 30 μL/min; 10 mM HEPES pH 7.4, 150 mM NaCl, 5 mM CaCl2, 0.005% Tween20; 1:1 binding model
# [2] = target: Ad26.HVR5C hexon, on purified vector particles (human adenovirus type 26); assay: as above
substance,measurement,setting,value
human coagulation factor X (natural protein),Kd,[1],2.33 nM
same,koff,[1],0.00305 s⁻¹
same,kon,[1],1.31e+06 M⁻¹ s⁻¹
same,Kd,[2],3.46 nM
same,koff,[2],0.0107 s⁻¹
same,kon,[2],3.08e+06 M⁻¹ s⁻¹
